Reference: PMC10786891, “Massively parallel profiling of RNA-targeting CRISPR-Cas13d”
Changes are numbered by the printed parent chain. In names and notes the source's numbering stands.

T1: EsCas13d, nuclease-dead (Eubacterium siraeum, UniProt B0MS50, R295A;H300A;R849A;H854A)
T1 sequence: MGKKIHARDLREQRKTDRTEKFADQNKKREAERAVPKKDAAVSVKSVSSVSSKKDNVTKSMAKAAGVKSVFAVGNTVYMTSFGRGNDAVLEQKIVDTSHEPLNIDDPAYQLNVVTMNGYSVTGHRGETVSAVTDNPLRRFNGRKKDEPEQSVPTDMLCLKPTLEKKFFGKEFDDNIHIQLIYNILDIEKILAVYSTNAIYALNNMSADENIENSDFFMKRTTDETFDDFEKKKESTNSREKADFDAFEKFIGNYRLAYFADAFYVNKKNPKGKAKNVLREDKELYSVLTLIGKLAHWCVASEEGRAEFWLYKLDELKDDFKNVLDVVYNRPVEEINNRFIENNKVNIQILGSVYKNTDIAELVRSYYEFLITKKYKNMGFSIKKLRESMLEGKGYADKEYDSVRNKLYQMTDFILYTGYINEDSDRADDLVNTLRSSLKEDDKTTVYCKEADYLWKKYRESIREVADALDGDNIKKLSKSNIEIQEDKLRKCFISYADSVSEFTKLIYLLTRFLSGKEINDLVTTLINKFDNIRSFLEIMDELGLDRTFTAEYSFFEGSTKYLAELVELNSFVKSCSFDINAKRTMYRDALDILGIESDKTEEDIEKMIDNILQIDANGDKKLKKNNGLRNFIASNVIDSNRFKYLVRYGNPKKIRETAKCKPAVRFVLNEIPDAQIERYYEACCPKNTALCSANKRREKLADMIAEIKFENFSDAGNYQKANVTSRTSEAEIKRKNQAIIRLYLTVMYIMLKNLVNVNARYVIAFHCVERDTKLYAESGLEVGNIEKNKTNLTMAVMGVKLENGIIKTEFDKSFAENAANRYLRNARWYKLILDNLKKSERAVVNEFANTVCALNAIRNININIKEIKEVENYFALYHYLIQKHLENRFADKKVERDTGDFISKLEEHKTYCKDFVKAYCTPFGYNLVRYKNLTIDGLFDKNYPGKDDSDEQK

B1: target 1 U3G,G17A (mixed)
RNA 1: CACCCGUGCAAAAAUGCAGGGGUCUAAAACUGAGCGGAUAACCUCUCUAUGG
RNA 2: GGGAAUGGAUCCACAUCUACGAAUUCGUACCAUAAAGAGGUUAUCCGCGCACCGAGAUCGGAAGAGCACACGU
B2: target 1 C2A,U3G (mixed)
RNA 1: B1 RNA 1
RNA 2: B1 RNA 2 with A35G, C50A
B3: target 1 insC 3' of 14,insG 3' of 1 (mixed)
RNA 1: B1 RNA 1
RNA 2: GGGAAUGGAUCCACAUCUACGAAUUCGUACCAUAGAGACGGUUAUCCGCUCAGCCGAGAUCGGAAGAGCACACGU
B4: target 1 A16C,G17C (mixed)
RNA 1: B1 RNA 1
RNA 2: B1 RNA 2 with A35C, A36C, G49U
B5: target 1 insU 3' of 21,insA 3' of 8 (mixed)
RNA 1: B1 RNA 1
RNA 2: GGGAAUGGAUCCACAUCUACGAAUUCGUACCUAUAGAGAGGUUAUACCGCUCACCGAGAUCGGAAGAGCACACGU
B6: target 1 A1C,C6G (mixed)
RNA 1: B1 RNA 1
RNA 2: B1 RNA 2 with A35G, C46G, G49U, A51C
B7: target 1 insG 3' of 8,insA 3' of 8 (mixed)
RNA 1: B1 RNA 1
RNA 2: GGGAAUGGAUCCACAUCUACGAAUUCGUACCAUAGAGAGGUUAUGACCGCUCACCGAGAUCGGAAGAGCACACGU
B8: target 1 G5C,A14C (mixed)
RNA 1: B1 RNA 1
RNA 2: B1 RNA 2 with A35G, A38C, G47C, G49U
B9: target 1 C6A,A18G (mixed)
RNA 1: B1 RNA 1
RNA 2: B1 RNA 2 with A34G, A35G, C46A, G49U
B10: target 1 insC 3' of 8,insU 3' of 4 (mixed)
RNA 1: B1 RNA 1
RNA 2: B7 RNA 2 with G45C, A46C, C48G, G49C, C50U
B11: target 1 U8G,U10G (mixed)
RNA 1: B1 RNA 1
RNA 2: B1 RNA 2 with A35G, U42G, U44G, G49U
B12: target 1 insU 3' of 13,insC 3' of 11 (mixed)
RNA 1: B1 RNA 1
RNA 2: B7 RNA 2 with G40U, U41G, A43C, G45A, A46U
B13: target 1 G5U,U11A (mixed)
RNA 1: B1 RNA 1
RNA 2: B1 RNA 2 with A35G, U41A, G47U, G49U
B14: target 1 insG 3' of 22,insA 3' of 11 (mixed)
RNA 1: B1 RNA 1
RNA 2: B5 RNA 2 with C31G, U32C, U43A, A44U, U45A, A46U
B15: target 1 G17A,U19G (mixed)
RNA 1: B1 RNA 1
RNA 2: B1 RNA 2 with U33G, G49U
B16: target 1 del15,del22 (mixed)
RNA 1: B1 RNA 1
RNA 2: GGGAAUGGAUCCACAUCUACGAAUUCGUACAUAGAAGGUUAUCCGCUCACCGAGAUCGGAAGAGCACACGU

The binders below were run against T1, EsCas13d, nuclease-dead (assay: crRNA (strand 1, pre-loaded); Mg2+; 40 mM Tris-HCl pH 7.5, 150 mM NaCl, 6 mM MgCl2, 1 mM DTT, 0.1% Tween-20, 0.2 mg/ml BSA; 25 C; 10 min per concentration, then washed). Details: tags: His6-TwinStrep-SUMO cleaved; N-terminal SNAP kept (SNAP-Surface 488); label: 3' end held by stalled T7 RNA polymerase.

With B1 as the binder, how does the Kd read?
Its Kd is 37 ± 4 nM.

Which Kd does the source give for B2 here?
The Kd was 8.6 ± 0.7 nM.

B3 was tested. Which Kd did it give?
The Kd was 50 ± 12 nM.

For B4, which Kd is on record?
Its Kd is roughly 100 nM.

For B5, which Kd is on record?
Its Kd is 48 ± 4 nM.

With B6 as the binder, how does the Kd read?
Its Kd is 12.1 ± 1.1 nM.

Which Kd does the source give for B7 here?
The Kd was 27.2 ± 1.4 nM.

Which Kd does the source give for B8 here?
The Kd was 14.5 ± 1.5 nM.

With B9 as the binder, how does the Kd read?
Its Kd is 98 ± 20 nM.

With B10 as the binder, how does the Kd read?
Its Kd is 12.2 ± 1 nM.

With B11 as the binder, how does the Kd read?
Its Kd is 20 ± 1.1 nM.

For B12, which Kd is on record?
The Kd was 29 ± 7 nM.

For B13, which Kd is on record?
The Kd was roughly 60 nM.

With B14 as the binder, how does the Kd read?
Its Kd is 33 ± 4 nM.

For B15, which Kd is on record?
Its Kd is 51 ± 6 nM.

For B16, which Kd is on record?
The Kd was 54 ± 23 nM.
